Paper PMC3120129 (Biochemistry, 2011)
Values belong to the molecule of their own block, whether it stands above or below them.

Key:
[1] = target: E2 domain of amyloid precursor protein (APP), construct APP_(346–548), native (human) (UniProt P05067); experiment: AUC
[2] = target: the molecule itself; experiment: crystal structure

Kd [1]: 9.2 µM
stoichiometry N [1]: 2
Molecule: E2 domain of amyloid precursor protein (APP), construct APP_(346–548), native (from UniProt P05067-8 346-548) (domain or fragment)

B1: E2 domain of APLP1, construct APLP1_(285–499) (crystallised) (domain or fragment, human, UniProt P51693 285-499, looked up)
chain: TPTPRPTDGVDIYFGMPGEISEHEGFLRAKMDLEERRMRQINEVMREWAMADNQSKNLPKADRQALNEHFQSILQTLEEQVSGERQRLVETHATRVIALINDQRRAALEGFLAALQADPPQAERVLLALRRYLRAEQKEQRHTLRHYQHVAAVDPEKAQQMRFQVHTHLQVIEERVNQSLGLLDQNPHLAQELRPQIQELLHSEHLGPSELEAPA
binding result [2]: binds
